In the DeepSol protein solubility set:

Assay: soluble on expression in E. coli; label from the status in PepcDB or PDB records

Row | Sequence | soluble on expression in E. coli
1 | MSYEMNSLFSSNQQPLGGGPPPQQQSQQQQQPPQSLWSLQQFSQMGAPDNFGNHAVPFMPTLGMLNQYQNPHPLQMVPPQPLVTPSQVLPPSMAEQQRADTIHGFGVLTWLSAKAGLITCKDKMIISFQLKDFCDQMLNDLTSVLRVGFTLSFHAALNETSEYTATIVSPIYGPDADVLFANSQEVDLEAANPTPPNSKDAYSPALEQKAIPALLAIFQRHGLQQIQLSRSFSLHSQMSNCGDDELFRYVGTSSLKRRQFVERRTHLFRLQNDDSIILQYPAVYQAVYQLASYLLRRGGATSIQSLFDYYGSPDIMPEVRSHTGEGRQDFLNLLTAHNWVFALFPNRTYVSVRRNLPNYDYVGFIKQHFQEMDITRSQQMAYGQPPRGIQRTMSAQMGSSFATGRPQNLLMQHQHAMTPAATRSGSLWDSQSSLSQSGNSGDQWSPLFSPSTWSNNTNANPRLTSLTPLSSMNETLLSGVNYNSLLAMPPSAKNERSIGVQADDFLDRMSYNPIGRTGCTCQCQCGRGGAAIIGNTRGSSSRASGGSASPPSADGASQIDRFSPSNHAGSIGDRTLTAAALGVGLVDQQPAAPNHDGSANQPQRYYDPFGTADLLNGTRLNSLRIGN | not soluble
2 | MINIVIPMAGAGSRFAQAGYKKPKPFIDVLGRPMICHVLDNLNMPDARFILLTRKEHFENEQETVNWIKSKYNVEFVLIDNLTEGAACTVLHAHKLIDNNTPLLIANSDQIVDMNIAEFINDSENRNLDGSVLCFKDHDTKWSYAKIDGEGLITEIREKVVISEFATVGIYYFAKGGFFVKNAIDMIIRNERVKNEFYVAPVYNFGIQEGLKFGIFNININQMHGIGTPTDLNVYIDLVQRNKLEHHHHHH | soluble
3 | MVKKEFQLTHIFKNVSKLKVGKFAWTPMKEHFNVSWQIAITRTHFRNEEKMEIQVGCQKLTKDDVPAGVEGEFTIKLTNSSGISTSKSSRLKLVKNGGLGFLKIVWKVMQDEYLIDDSIIIEATVKITKMTGISKKPLKCFDQSKEKFSDVILAVGDQKFFVLRKFLASHSTFFESRFLGNFDEADKSEVTLRDIDSADFQNLLEVLYGEPAIDDDTVDGILHLAHMYDIPLPIRKCEEFLIEVSEKSMKDQLVLAKQYQLEKLKVKKKT | not soluble
4 | MRIHDIDPDNRPRERFLRSGKESLSPAELLALILRSGTAGLNIIDTCNKLISEHGLERLADLSIQELQKTPGIGEAKAMQIAAIFELQRRLHFARNMNLKVKGARDVFEYMKGRIPDETKEHLFVLFLSTKNQILRHETITIGTLTASLIHPREIFKAAIRESAHSIILVHNHPSGDVQPSNADKQVTSILKKAGDLLQIELLDHVIVGNNDWFSFRDHALL | not soluble
5 | MKRVEDWIKQAERDLEEARYAKSGGYYELACFLSQQCAEKAVKGLLQFQGIEKRGHSISHLLTNPPADILQCATFLDKQYTPSRYPDVYYEGAPYEYYTERDADECINCAIRILNWVKGQIK | soluble
6 | MTDDRVEQVLEAARRLVAAFARNDAEAYFAAFSEDASFIFHNWPQPLRSRAAYRKLWERWRREDGFEVLACESSNTCVSLQGDLAIFSHDVATRLRLQGTESLNRERETILFRLEQQEGRWLACHEHLSAMPEYLPSTS | not soluble
7 | MSLTKFVSAPLICGLALLGALSAAHAQTGIPALPPIAQPLPVPAPAPVTPPAPTVPVPQEPAPVPQPPMPQPSVPQTPAPQKPVTPRPAPAPSRAPLLIQARANVPALVAGKKTTVPVLKTLTIPAERAAQLRQRGEVSASLQADLDTFLKSLAAPRDARFEQQDDGQWAVVQPNGLKVDAQATRAAVAKVLRDPRGVSANVVVTGQVAPQRTLDFFASRGITTFLATGFTSYYGSSPERVKNIHVGAQNFKDRLFEGDVFSFNKFIGPVSERNGYVPGLVIAGDQTASGVGGGICQVSTTVFRTLYGAGLGIVQRQNHSYQVFYYDPQGLDATIYQPQLDLKFANTTGGPIWFQTEWDDQEATLTITAFGQARDYQVQVDAPKTLKTVAPPKDRLIPDASLPAGQRKQVDWAAPGATIEVTRRFTRGGKTFKQDTLRSVYRPWPNIFRVGTKKEGGSHHHHHH | soluble
8 | GMIPIVDSRIGAYLDGLLPEADPVVAAMEQIARERNIPIVDRQTGRLLYLLARIKQPQLVVVPGDGLGCASWWFARAISISSRVVMIDPDRDNVEHARRMLHDNGLIDRVELQVGDPLGIAAGQRDIDILFMDCDVFNGADVLERMNRCLAKNALLIAVNALRRGSVAESHEDPETAALREFNHHLSRRRDFFTTIVPVGNGVLLGYRLS | soluble
9 | MAGRVHPRQLAFSLPHAESLSRDNFLEGPANAAGLALIDGWPEWPNRIMWLAGPEGSGKSHLAAIWAEEAGARSTTANALSAAGVPGALATGALVVEDLKAKDFDERALFHLMNLAREDGAYVLFTGRDVPAALDIELNDLRSRLRAVPVVMLLPPDDQLFRGLIVKFCADRQLTVDESVVSYLATRLERSSAAARQAVELLDSEALRLGRPVTRALAAELLRDALEHHHHHH | soluble
10 | MGSDKIHHHHHHMPINSFENYPMTWKPKLDNRKPPIYKTLAMLLEEDIKRGNLNPGDKLPPQRELADFLDLNLSTITRAFKLCEEKGLICAKVGKGTFISSDVNVSNTLLYQTESKDIIELGTVHPPYEQNTYIIDFIKNVLKQPEMDRFLQYMSPSGTYMQKKSIAKWIERNNVYTSEENILLSTGGQNAICATLLGLFKAGDRIATDSLSFSGIKSIAKMIGIQLVPIPQENNEISIEYLESYCKNENIKGIYLIPDYHNPTTHTMSDLSRKKIAKIAKQYNIIIIEDAINSIFRDGIQTPIFSLASDNTIYIFSTSKFLCAGLRVAFVVAPKRYIENLENALYNMNLMVSPFTAEIVHRLLYSPIIDKIIEEKRDAIIERNEVADKVLSDYNLIGDKNCSFRWLLLPDELDGKSFEISAKNLGVQVYCAERFSVGNSTVPKAVRICVTAPKDVEELEKGLNIIKSLLKS | not soluble
11 | ISNKHFEQAIERVVAGMEKKTQVLQKEEKKTVAYHEAGHAIAGWFLQHADPLLKVSIIPRGKGLGYAQYLPKEQYLYSKDQLLDRMCMTLGGRVAEEIFFGRITTGAQDDLQKVTQMAYSQVVKFGMSEKVGPLSFETPAPGEMAFDKPYSEATAQLIDQEQFADLPEILDSGNLPICRKFSIPAICRFAGNFQFRQFANLPNCRKFSIPTICQFAGNFNFQKIADLPEKIVRDLVMNALRRTRDLLLEKRSDIERVALRLLEKEILNREDMIEL | not soluble
12 | HELLSREEVESILSENQLLLQVTPTAPPKTPLSVCFYQVSLEIDRPQSPLVSQSAFEEAATLYNLLPKVDSWICEQLLVDHAQAIHQKGLALAIPLSEAALLKEDFRQSLLTLVQQTLLPPQSLYWMIDESTLLQYPFAIGNFLAKLQQPGCKLIVKEFGHNLNDFELLAEHHIDYLKFNSELIAHIHINQMDEVLISIINGTAQRANIATLAGPVELPPTLSKLIDIGVDLADGTMIGRTEPLSEVLNSSYFAIK | soluble
13 | PITDERVYESIGHYGGETVKIVRIEKARDIPLGATVRNEMDSVIISRIVKGGAAEKSGLLHEGDEVLEINGIEIRGKDVNEVFDLLSDMHGTLTFVLIPS | soluble
14 | MGSDKIHHHHHHMDIENMKAFNKVAELKSISAAANELHHLQSNMSNKIKNIEKQFQTQLFFRHSNGVELTKEGEKIYQQFKKMILLWEETIDIINNEEETISIGITQSSLPMEFNTIIKEFYQQFPNKKLSIVSGSTSELIPKIANRELTIAYVAELEKENLFQDSQIISQTLSWDKLVFAGNTAGKSVQKILAEERLYVFSKQCYSYRALAALINDFNIPNVSISEINIPETLVEICNNELGVGIIPESIALNYHFLNYETLPTEYAALRKTLIYHADHTISNGEKWLIEKSKPAFKS | not soluble
15 | MAIEIKVPDIGADEVEITEILVKVGDKVEAEQSLITVEGDKASMEVPSPQAGIVKEIKVSVGDKTQTGALIMIFDSADGAADAAPAQAEEKKEAAPAAAPAAAAAKDVNVPDIGSDEVEVTEILVKVGDKVEAEQSLITVEGDKASMEVPAPFAGTVKEIKVNVGDKVSTGSLIMVFEVAGEAGAAAPAAKQEAAPAAAPAPAAGVKEVNVPDIGGDEVEVTEVMVKVGDKVAAEQSLITVEGDKASMEVPAPFAGVVKELKVNVGDKVKTGSLIMIFEVEGAAPAAAPAKQEAAAPAPAAKAEAPAAAPAAKAEGKSEFAENDAYVHATPLIRRLAREFGVNLAKVKGTGRKGRILREDVQAYVKEAIKRAEAAPAATGGGIPGMLPWPKVDFSKFGEIEEVELGRIQKISGANLSRNWVMIPHVTHFDKTDITELEAFRKQQNEEAAKRKLDVKITPVVFIMKAVAAALEQMPRFNSSLSEDGQRLTLKKYINIGVAVDTPNGLVVPVFKDVNKKGIIELSRELMTISKKARDGKLTAGEMQGGCFTISSIGGLGTTHFAPIVNAPEVAILGVSKSAMEPVWNGKEFVPRLMLPISLSFDHRVIDGADGARFITIINNTLSDIRRLVM | soluble
16 | MGSDKIHHHHHHQPAAGISDDMVKIGMLLDMSGLYADVTGRGSATAAQMAIDDFGGKVLGKKIELVVVDHQNKADIAANKAREWFDTGHVDAILDVAASAPALAVLDVAKQKNHIVVFSGPGSERITNDLCTPVSVHYAYDTYALANTTARAMVQRGGKTWFFLTADYAFGHTLQDSATAVINEAGGKVLGAARHPIGASDFASYLLQAQASKAQVVGLANAGGDTVNAIKAASEFGLTRNGAQRMAGLLLYINDIHAIGLKTASGLVLTEAFYWDMNDATRAWSRRYFEKVKKMPNMSQAGAYSSVMHYLKAVQAAGTDETAAVMKKMKSMPINDFFAKNGRIREDGRMIHDMYLFEVKSPAESKYPWDYYKVLATVPGDQAFMPASKSQCPLLKR | not soluble
17 | MIEVIFLGTGGIKPTPERNVPSIAIKIGGEIILFDVGEGTLRQMEIARISPMKIKRVFITHFHGDHYLGLPALIQTMSLWKRKDPLHIYGPEGSSTFLQNLLNSGYFAPSFDILVHEISGKSRLKFKEYEVWAFEVSHGVPALGYVFKEKDKRGNFNLKKIKELGLEPGPWMKELERQKIIEINGKIVRLLEVTGPKKRGAKVVYSGDTEPCDEVIEFSRRGTLLIHEATYVNEEDRKDSYHTTIEEACEIWKKSKARKLVLFHRSPRYSFKEYKEKALSICPQAIIPRDFDRIAIEGAGDVLFKIR | soluble
18 | MGSDKIHHHHHHVPVADRVSKVDVIAFRLAAHHLDERLGEGGLLDAAGRCGIQNSPPGSALLALHARVRNLTQQQVAGAVAKEKSLLQTWCMRGSPFYFPALDAPVFTTGVLPPTEEAMRHLVVGVEPALDKLGISLTEAVELADAEIHEVLSGRRLAINELGAEIATRIARRLPKRQRDIWEDNGPYAPGQPLGEGVVHFCVRILTLQRVLCLAPRVGNQSPFVLVDEWLGDPIPDIDPELARAELLRRYLRCYGPSTRGDFASWAGVHAGDTGPWWNLVGTELTPVEFGGTSWILTEDLDALRSAPAPTGVRLLPPGDPYTQMRDRETIVDKKYHREVWRMAGGPGTVLAGGKITGTWRSRKSGRKLALTITTFGSLPDRDRTSLQGEAGQVAALRGASSVDVAFGTY | not soluble
19 | MGSDKIHHHHHHMEKKVLIVGISQKQKDFDYSMEELANLAAANNMEVVGEIRQNIDRENRATYVGKGKVDEIKGLAEMQDARLIIFNDELSPSQIRNLEEALELDVMDRTGLILAIFANRAKTKEAQLQVQIAKLQYELPRIFGQGEDMDQQSGKGGLSNRGSGEKKIETDRRTIKYQIRHLQKELDMLVDDREVRRRKRKKNEIPVVSLVGYTNAGKSTTMNGLVRAYSETAEKQVFEKDMLFATLETSVREIVLPDNKQFLLTDTVGFVSKLPHQLVKAFRSTLEEARDADLLIHVVDYSDPHYKTMMKTTEETLKAVGVEDVPVIYAYNKADLIEGEIYPKQTENTIVFSAREKESLEFLTEVIRKELFASYEKATFLIPFEAGNVVAYLNDHADVLATEYLENGTQIVAEVSPADLQKLAEYQVAE | not soluble
20 | QADTAMIVQISADRKEINLVSIPRDSLVDVPQCETSKGTIPAQYNVMFNSIFAGAYKTGGDLSSAASCTLNAVNSLTGLNIQNFIVVDFAGLVKMIDSVGGVDLCIPQNVNDPYTGLNLDKGMHHLDGVAATQYARIRHGIGDGSDTSRTTRQQYLIKQLMSEALS | not soluble
